The text below walks through data of PMC3947186 (Structure (London, England : 1993), 2013).

Like-named read-outs stand apart in the source and are kept apart here.

Common to all, as to assay: ITC
A general note: ITC needs no label: the signal is the heat of the interaction.

Experiment [1] addresses mouse CSL core domain (residues 53-474), wild type (mouse) (UniProt P31266).
Experiment [2] shares this target. The source holds these as a separate data set.
In experiment [3] the target is BTD of mouse CSL (residues 203-393) (mouse) (UniProt P31266).
The target in experiment [4] is mouse CSL core domain (53-474) mutant A284R (mouse) (UniProt P31266).
The target in experiment [5] is mouse CSL core domain (53-474) mutant F261R (mouse) (UniProt P31266).
Experiment [6] addresses mouse CSL core domain (53-474) mutant Q333R (mouse) (UniProt P31266).
Experiment [7] addresses mouse CSL core domain (53-474) mutant V263R (mouse) (UniProt P31266).
The target in experiment [8] is mouse CSL core domain (residues 53-474), wild type (mouse) (UniProt P31266). This is another data set of the same source.
Experiment [9] shares this target. This is another data set of the same source.
Experiment [10] concerns the target mouse CSL core domain (residues 53-474), wild type (mouse, UniProt P31266 53-474).

mouse CSL core domain (53-474) mutant F261R (mouse), sequence (P31266 53-474 F261R): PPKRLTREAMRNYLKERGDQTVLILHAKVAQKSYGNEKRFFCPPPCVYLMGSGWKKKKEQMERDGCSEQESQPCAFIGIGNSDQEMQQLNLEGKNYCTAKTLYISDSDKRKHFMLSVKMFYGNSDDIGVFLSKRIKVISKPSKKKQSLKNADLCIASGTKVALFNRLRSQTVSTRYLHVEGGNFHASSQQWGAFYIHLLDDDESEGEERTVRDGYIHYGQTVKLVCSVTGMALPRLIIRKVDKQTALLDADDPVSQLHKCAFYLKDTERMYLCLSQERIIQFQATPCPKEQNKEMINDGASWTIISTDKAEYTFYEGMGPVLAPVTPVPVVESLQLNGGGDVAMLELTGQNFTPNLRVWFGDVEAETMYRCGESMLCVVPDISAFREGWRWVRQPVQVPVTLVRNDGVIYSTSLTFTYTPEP
mouse CSL core domain (53-474) mutant V263R (mouse), sequence (P31266 53-474 V263R): as the sequence (P31266 53-474 F261R) above, with R209F, V211R counted along it
mouse CSL core domain (residues 53-474), wild type (mouse), sequence (P31266 53-474): as the sequence (P31266 53-474 F261R) above, with R209F counted along it
mouse CSL core domain (53-474) mutant Q333R (mouse), sequence (P31266 53-474 Q333R): as the sequence (P31266 53-474 F261R) above, with R209F, Q281R counted along it
BTD of mouse CSL (residues 203-393) (mouse), sequence (P31266 203-393): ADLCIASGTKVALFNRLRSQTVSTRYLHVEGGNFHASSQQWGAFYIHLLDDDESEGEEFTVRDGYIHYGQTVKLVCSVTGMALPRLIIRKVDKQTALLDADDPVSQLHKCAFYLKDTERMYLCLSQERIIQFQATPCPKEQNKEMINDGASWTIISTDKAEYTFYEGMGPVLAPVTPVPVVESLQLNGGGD
mouse CSL core domain (53-474) mutant A284R (mouse), sequence (P31266 53-474 A284R): as the sequence (P31266 53-474 F261R) above, with R209F, A232R counted along it
mouse CSL core domain (residues 53-474), wild type, sequence (P31266 53-474): as the sequence (P31266 53-474 F261R) above, with R209F counted along it

As a reminder, the Kd is the free concentration of one partner at which half of the binding sites on the other are occupied at equilibrium, for simple one-to-one binding. With “KyoT2 KD196AA (in the construct 184-210) (peptide)”, in experiment [1], the Ka worked out at 1.2e+08 M⁻¹, the Kd was determined as 0.012 µM and the dH is -66.9 kJ/mol.

In [1], “KyoT2 V186A (in the construct 184-210) (peptide)” came in with a Kd of 0.069 µM and a dH of -57.3 kJ/mol.

With “RAM domain of Notch1, mutant Q1763A (from UniProt P46531 19-2555) (domain or fragment)”, in experiment [1], the Ka turned out to be 2e+07 M⁻¹, the Kd was determined as 0.022 µM and the dH is -31.4 kJ/mol.

For the molecule “RAM domain of Notch1, wild type (from UniProt P46531 19-2555) (domain or fragment)”, in [1], the Ka came out at 6.8e+07 M⁻¹, the Kd worked out at 0.015 µM and the dH was -76.1 kJ/mol.

On to “mouse KyoT2 (residues 182-210) (peptide)”, for which, in experiment [1], the Ka amounted to 7.1e+07 M⁻¹, the Kd turned out to be 0.015 µM and the dH was -66.9 kJ/mol.

In experiment [1], “mouse KyoT2 (residues 184-200) (peptide)” came in with a Ka of 3.1e+07 M⁻¹ and a dH of -54.8 kJ/mol.

What is called stoichiometry N is a count of units in the complex or per binding partner. Consider “mouse KyoT2 (residues 184-210) (peptide)”, for which the Ka was 1.1e+08 M⁻¹ in experiment [2]; 340000 M⁻¹ in experiment [5]; 2e+07 M⁻¹ in experiment [6]; 3.1e+07 M⁻¹ in experiment [7]; 8.5e+07 M⁻¹ in experiment [1]; 9.4e+07 M⁻¹ in experiment [8]. Further, the Kd came out at 0.011 µM in [2]; 0.026 µM in experiment [3]; 7.2 µM in experiment [4]; 6.3 µM in experiment [5]; 0.051 µM in experiment [6]; 0.019 µM in [7]. For the same molecule, the Kd in experiment [1] was 0.012 µM; in [8], 0.011 µM. Further, the dH in [2] is -46 kJ/mol; in [3], -56.9 kJ/mol; in [4], -43.9 kJ/mol; in experiment [5], -23.4 kJ/mol; in experiment [6], -49 kJ/mol; in [7] it was -54 kJ/mol. The dH in [1] was -64.9 kJ/mol; in [8] it was -61.1 kJ/mol. Besides, the stoichiometry N in experiment [1] turned out to be 1.

B1: KyoT2 tetrapeptide VWWP (residues 190-193) (peptide)
peptide: VWWP
Take B1: the dissociation constant Kd in experiment [9] is 8 µM.

B2: KyoT2 peptide KAPVWWPMKD (residues 187-196) (peptide)
peptide: KAPVWWPMKD
For the molecule B2, the “fold enhancement in binding against the peptide APVWWPMK” value in experiment [10] is roughly 40 fold.

B3: KyoT2 peptide APVWWPMK (residues 188-195) (peptide)
peptide: APVWWPMK
Regarding B3, the binding result in experiment [10] was “binds”.
